From IntAct's records for PubMed 22807449

B1: Natural cytotoxicity triggering receptor 3 (Homo sapiens), O14931 (parent)
chain: MAWMLLLILIMVHPGSCALWVSQPPEIRTLEGSSAFLPCSFNASQGRLAIGSVTWFRDEVVPGKEVRNGTPEFRGRLAPLASSRFLHDHQAELHIRDVRGHDASIYVCRVEVLGLGVGTGNGTRLVVEKEHPQLGAGTVLLLRAGFYAVSFLSVAVGSTVYYQGKCLTWKGPRRQLPAVVPAPLPPPCGSSAHLLPPVPGG
partner: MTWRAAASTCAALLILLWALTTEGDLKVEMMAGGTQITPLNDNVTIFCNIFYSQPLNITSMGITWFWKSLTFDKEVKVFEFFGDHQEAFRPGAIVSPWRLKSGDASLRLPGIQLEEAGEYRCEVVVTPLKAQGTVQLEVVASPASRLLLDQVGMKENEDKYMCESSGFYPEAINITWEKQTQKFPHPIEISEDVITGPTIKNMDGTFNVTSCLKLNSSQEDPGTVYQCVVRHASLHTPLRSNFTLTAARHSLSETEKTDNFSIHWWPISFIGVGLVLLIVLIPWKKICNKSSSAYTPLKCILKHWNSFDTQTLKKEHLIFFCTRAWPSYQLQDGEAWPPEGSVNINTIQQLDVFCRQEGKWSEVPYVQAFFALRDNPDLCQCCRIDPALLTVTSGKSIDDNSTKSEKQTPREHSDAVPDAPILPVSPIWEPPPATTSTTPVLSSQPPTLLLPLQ
B2: Natural cytotoxicity triggering receptor 3 (Homo sapiens), O14931 (parent)
chain: B1 chain

Variants of: B1
Settings: with nr3l1_human NCR3LG1, Q68D85

Variant | effect of a mutation on the interaction
N42Q;N68Q;N121Q | disrupting interaction strength
N42Q;N121Q | disrupting interaction strength
N121Q | with no effect
N68Q;N121Q | decreasing interaction strength
N68Q | decreasing interaction strength
N42Q | disrupting interaction strength
N42Q;N68Q | disrupting interaction strength

Variants of: B2
Settings: with bag6_human BAG6, P46379
Sequence of bag6_human BAG6, P46379 (P46379 whole entry): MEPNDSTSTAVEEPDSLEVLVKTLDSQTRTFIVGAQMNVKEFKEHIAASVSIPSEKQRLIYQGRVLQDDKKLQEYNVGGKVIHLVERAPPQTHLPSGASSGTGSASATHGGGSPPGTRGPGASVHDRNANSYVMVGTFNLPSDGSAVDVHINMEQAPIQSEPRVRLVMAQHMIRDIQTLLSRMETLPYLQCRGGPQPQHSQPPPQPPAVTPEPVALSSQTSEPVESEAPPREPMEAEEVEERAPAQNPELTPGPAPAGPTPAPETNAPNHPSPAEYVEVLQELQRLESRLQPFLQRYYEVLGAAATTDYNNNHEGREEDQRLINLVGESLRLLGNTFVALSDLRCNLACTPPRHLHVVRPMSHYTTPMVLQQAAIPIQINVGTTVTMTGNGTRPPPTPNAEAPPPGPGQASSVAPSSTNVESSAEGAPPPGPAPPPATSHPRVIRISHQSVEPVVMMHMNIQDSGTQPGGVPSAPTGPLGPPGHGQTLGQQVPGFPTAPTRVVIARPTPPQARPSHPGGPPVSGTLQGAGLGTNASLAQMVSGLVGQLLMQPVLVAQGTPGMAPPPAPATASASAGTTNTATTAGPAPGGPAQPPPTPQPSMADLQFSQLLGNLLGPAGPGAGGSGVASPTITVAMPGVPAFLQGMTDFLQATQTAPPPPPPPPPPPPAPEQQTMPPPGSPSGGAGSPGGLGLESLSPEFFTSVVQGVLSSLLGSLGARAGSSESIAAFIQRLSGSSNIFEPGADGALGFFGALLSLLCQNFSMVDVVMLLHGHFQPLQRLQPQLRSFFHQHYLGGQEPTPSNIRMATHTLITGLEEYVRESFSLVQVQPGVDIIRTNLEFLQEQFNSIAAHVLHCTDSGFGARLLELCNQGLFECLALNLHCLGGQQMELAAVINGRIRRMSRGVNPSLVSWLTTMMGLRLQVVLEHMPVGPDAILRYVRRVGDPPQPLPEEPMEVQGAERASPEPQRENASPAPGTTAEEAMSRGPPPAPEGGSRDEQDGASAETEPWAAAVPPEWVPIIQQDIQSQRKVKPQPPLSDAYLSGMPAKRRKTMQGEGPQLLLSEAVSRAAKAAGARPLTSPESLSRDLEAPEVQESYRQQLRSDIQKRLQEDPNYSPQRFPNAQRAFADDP

Variant | effect of a mutation on the interaction
N68Q;N121Q | with no effect
N42Q | with no effect
N121Q | with no effect
N42Q;N68Q;N121Q | with no effect
N42Q;N121Q | with no effect
N42Q;N68Q | with no effect
N68Q | with no effect
